Experimental data taken from article PMC11555092.

Biological target: HIV-1 CA hexamer (CA A14C/E45C/W184A/M185A mutant) (HIV-1)
Experiment: SEC; Superdex 10/300 GL increase column in 50 mM Tris pH 8; elution at 12.5 mL

HIV-1 CA hexamer (CA A14C/E45C/W184A/M185A mutant) (complex)
stoichiometry N: 6
